Assay results: publication PMC2386288, “Kinetics and Ligand-Binding Preferences of Mycobacterium tuberculosis Thymidylate Synthases, ThyA and ThyX” (PLoS ONE, 2008)
Read-outs that look alike come from different tables or passages of the source.

Legend:
[1] = tested on: Nc1nc2c(c(=O)[nH]1)N1CN(c3ccc(C(=O)N[C@@H](CCC(=O)O)C(=O)O)cc3)CC1CN2; experiment: purified protein
[2] = tested on: O=c1ccn([C@H]2C[C@H](O)[C@@H](COP(=O)(O)O)O2)c(=O)[nH]1; experiment: purified protein
ThyX = target: T1, ThyX (Mycobacterium tuberculosis, UniProt P9WG57); experiment: biochemical
T1 construct: C-terminal His-Tag

ThyA = target: T2, ThyA (Mycobacterium tuberculosis, UniProt P9WFR9); experiment: biochemical
T2 construct: N-terminal His-Tag

[3] = tested on: NC(=O)C1=CN([C@@H]2O[C@H](COP(=O)(O)OP(=O)(O)OC[C@H]3O[C@@H](n4cnc5c(N)ncnc54)[C@H](OP(=O)(O)O)[C@@H]3O)[C@@H](O)[C@H]2O)C=CC1; experiment: purified protein; conditions: FAD
SEC = target: the molecule itself; experiment: SEC

T2 sequence (P9WFR9 2-266): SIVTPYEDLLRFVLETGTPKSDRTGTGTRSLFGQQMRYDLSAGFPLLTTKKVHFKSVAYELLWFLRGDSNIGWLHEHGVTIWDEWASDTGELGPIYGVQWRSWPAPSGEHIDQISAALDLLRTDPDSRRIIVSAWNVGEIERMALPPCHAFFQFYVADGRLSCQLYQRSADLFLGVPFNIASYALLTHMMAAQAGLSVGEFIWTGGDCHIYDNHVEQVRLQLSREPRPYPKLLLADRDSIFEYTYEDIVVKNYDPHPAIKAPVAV

ThyA (Mycobacterium tuberculosis H37Rv)
Km [1]: 70 ± 30 µM | Km ([2]; mTHF): 4 ± 0.7 µM

O=c1[nH]c(=O)n([C@H]2C[C@H](O)[C@@H](COP(=O)(O)O)O2)cc1F [FdUMP, 5-Fluoro-2′-deoxyuridine 5′-monophosphate]
Ki (ThyX): 100 ± 10 nM | Ki (ThyA): 2 ± 0.2 nM

ThyX (Mycobacterium tuberculosis H37Rv)
Km [3]: 47 ± 10 µM | Km ([1]; FAD): 4.0 ± 1 µM | Km ([2]; FAD): 3 ± 0.7 µM

B1: Histidine-tagged M. tuberculosis ThyX (flavin-dependent thymidylate synthase) (enzyme)
chain: MAETAPLRVQLIAKTDFLAPPDVPWTTDADGGPALVEFAGRACYQSWSKPNPKTATNAGYLRHIIDVGHFSVLEHASVSFYITGISRSCTHELIRHRHFSYSQLSQRYVPEKDSRVVVPPGMEDDADLRHILTEAADAARATYSELLAKLEAKFADQPNAILRRKQARQAARAVLPNATETRIVVTGNYRAWRHFIAMRASEHADVEIRRLAIECLRQLAAVAPAVFADFEVTTLADGTEVATSPLATEA
notes: also called FDTS
stoichiometry N (SEC): 4
